According to PMC7550751, “Application of Force to a Syndecan-4 Containing Complex With Thy-1–αVβ3 Integrin Accelerates Neurite Retraction” (Frontiers in Molecular Biosciences, 2020):

What was measured:
[1] = target: T1, Commercially purified human Syndecan (ectodomain)-4-Fc (human, UniProt P31431 19-145); experiment: zero force, optical tweezers
T1 chain: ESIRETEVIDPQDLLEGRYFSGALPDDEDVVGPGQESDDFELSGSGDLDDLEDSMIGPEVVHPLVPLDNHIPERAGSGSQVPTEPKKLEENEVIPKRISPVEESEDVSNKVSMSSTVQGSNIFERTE

[2] = target: T2, Recombinant αVβ3-Fc integrin (UniProt P06756 31-992; P05106 27-718); experiment: zero force, optical tweezers
T2 chain 1: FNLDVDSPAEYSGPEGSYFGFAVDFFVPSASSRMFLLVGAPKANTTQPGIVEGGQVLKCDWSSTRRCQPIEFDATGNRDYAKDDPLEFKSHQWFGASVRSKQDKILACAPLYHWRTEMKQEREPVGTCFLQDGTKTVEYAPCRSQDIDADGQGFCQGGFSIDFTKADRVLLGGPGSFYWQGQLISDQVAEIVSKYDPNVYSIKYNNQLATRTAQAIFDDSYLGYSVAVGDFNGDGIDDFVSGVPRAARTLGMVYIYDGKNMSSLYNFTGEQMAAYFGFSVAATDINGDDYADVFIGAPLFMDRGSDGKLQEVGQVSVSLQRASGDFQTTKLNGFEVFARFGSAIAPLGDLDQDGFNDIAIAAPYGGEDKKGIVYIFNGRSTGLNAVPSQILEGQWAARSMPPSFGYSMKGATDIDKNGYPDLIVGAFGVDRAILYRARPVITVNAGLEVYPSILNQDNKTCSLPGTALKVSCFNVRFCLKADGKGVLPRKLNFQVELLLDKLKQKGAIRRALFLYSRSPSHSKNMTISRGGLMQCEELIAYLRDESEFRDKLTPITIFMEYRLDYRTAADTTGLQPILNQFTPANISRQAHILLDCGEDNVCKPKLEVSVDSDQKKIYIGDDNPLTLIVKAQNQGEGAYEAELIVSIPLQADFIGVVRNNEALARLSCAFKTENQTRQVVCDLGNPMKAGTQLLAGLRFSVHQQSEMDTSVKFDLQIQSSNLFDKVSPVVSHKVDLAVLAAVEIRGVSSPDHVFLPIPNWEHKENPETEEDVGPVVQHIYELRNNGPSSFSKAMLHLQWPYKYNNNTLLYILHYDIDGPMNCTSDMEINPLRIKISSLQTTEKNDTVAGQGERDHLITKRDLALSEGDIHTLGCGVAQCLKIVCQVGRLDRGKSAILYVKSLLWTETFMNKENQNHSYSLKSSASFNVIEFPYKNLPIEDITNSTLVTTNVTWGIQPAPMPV
T2 chain 2: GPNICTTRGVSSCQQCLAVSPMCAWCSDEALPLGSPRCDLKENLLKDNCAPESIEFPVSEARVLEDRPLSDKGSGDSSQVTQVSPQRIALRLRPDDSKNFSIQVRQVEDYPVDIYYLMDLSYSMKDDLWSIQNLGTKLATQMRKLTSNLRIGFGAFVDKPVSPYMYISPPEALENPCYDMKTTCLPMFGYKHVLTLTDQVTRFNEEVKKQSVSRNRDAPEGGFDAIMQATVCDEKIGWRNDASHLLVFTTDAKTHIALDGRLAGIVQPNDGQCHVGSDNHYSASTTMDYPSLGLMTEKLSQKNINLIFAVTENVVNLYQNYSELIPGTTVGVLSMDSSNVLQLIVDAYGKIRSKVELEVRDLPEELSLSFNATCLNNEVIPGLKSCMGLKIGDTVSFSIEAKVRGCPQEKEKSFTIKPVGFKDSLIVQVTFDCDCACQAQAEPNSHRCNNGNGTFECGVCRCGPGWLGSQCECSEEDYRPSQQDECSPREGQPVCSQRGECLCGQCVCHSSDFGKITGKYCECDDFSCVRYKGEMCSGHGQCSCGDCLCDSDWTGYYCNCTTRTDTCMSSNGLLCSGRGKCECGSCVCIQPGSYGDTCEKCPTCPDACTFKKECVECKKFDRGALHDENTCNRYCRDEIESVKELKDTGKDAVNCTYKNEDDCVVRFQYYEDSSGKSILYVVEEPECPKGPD

[3] = target: T1, Commercially purified human Syndecan …; experiment: zero force, optical tweezers, with TRAIL-R2-Fc control on the bead
[4] = target: T2, Recombinant αVβ3-Fc integrin; experiment: as above
[5] = target: T3, αVβ3-Fc + Syndecan-4-Fc (both on one bead) ( | human, UniProt P06756 31-992; P05106 27-718; P31431 19-145); experiment: zero force, optical tweezers, both αvβ3-Fc and Syndecan-4-Fc on the bead
T3 chain 1: T2 chain 1
T3 chain 2: T2 chain 2
T3 chain 3: T1 chain

- koff [1]: 0.32 s⁻¹
- koff [2]: 0.14 s⁻¹
- koff [3]: 0.28 s⁻¹
- koff [4]: 0.15 s⁻¹
- koff [5]: 0.08 s⁻¹
B1: Thy-1-Fc wild type (Fc fusion)
chain: QKVTSLTACLVNQNLRLDCRHENNTKDNSIQHEFSLTREKRKHVLSGTLGIPEHTYRSRVTLSNQPYIKVLTLANFTTKDEGDYFCELQVSGANPMSSNKSISVYRDKLVKC
